No end group written: not given here.

Test [1] addresses ROS-GC1 peptide 1 peptide 1 (Bos taurus) (UniProt P55203). The test is described as follows: fluorescence.
Test [2] concerns the target myristoylated guanylyl cyclase-activating protein 2 (GCAP-2), bovine (bovine) (UniProt P51177). Kind of test: other fluorescence titration; GCAP-2 mixed with increasing concentrations of peptide in 20 mM HEPES pH 7.5, 20°C; excitation 280 nm, emission 350 nm; calcium not controlled, ~2 uM.
Test [3] has the same target. The test is described as follows: SPR; GCAP-2 immobilised by amine coupling on 2D CMD sensor slides; peptides injected at 0.5-40 uM (peptide 3: 5-40 uM); 20 mM HEPES, 0.05% Tween, pH 7.5, 22°C, 30 ul/min; two-state model with equimolar binding; calcium not controlled, ~2 uM.
Test [4] deals with T1, GCAP-2 (Bos taurus, UniProt P51177).
T1 construct: made in house; host or cells: E. coli BL21 (DE3), vector pET-11a, co-expressed with yeast N-myristoyltransferase I (pBB131)
T1 sequence (P51177 1-204): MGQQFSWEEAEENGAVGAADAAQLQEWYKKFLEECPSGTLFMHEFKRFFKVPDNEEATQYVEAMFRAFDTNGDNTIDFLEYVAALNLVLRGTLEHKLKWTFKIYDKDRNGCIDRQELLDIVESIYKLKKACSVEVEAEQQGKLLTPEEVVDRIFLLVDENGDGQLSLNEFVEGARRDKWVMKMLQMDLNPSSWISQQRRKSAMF
Kind of test: Surface plasmon resonance (SPR), GCAP-2/ROS-GC peptide interaction. Format: binding, bovine.

For test [5], the target named is T1, GCAP-2. Kind of test: Fluorescence spectroscopy titration of ROS-GC peptides to GCAP-2. On the set-up: species or system bovine. Conditions: excitation 280 nm, emission 350 nm, 20 mM HEPES pH 7.5, 20°C, calcium ~2 μM, read-out: KD1 (first binding event).
Description: Fluorescence measurements were carried out with a Jasco Spectrofluorometer FP-8200, equipped with a Jasco MCB-100 Mini Circulation Bath (20°C, xenon lamp, data interval 0.5 nm, accumulation number 3). The excitation wavelength was 280 nm, fluorescence emission was recorded at 350 nm to exclude self-fluorescence of non-bound peptide. […] As a negative control, separate recordings were performed with N-acetyl-L-tryptophanamide or N-acetyl-L-tyrosinamide, respectively.
A wavelength of 350 nm was chosen to rule out that changes in fluorescence originate from an increased concentration of non-bound peptide.

Sequence of ROS-GC1 peptide 1 peptide 1 (Bos taurus) (P55203 57-1110): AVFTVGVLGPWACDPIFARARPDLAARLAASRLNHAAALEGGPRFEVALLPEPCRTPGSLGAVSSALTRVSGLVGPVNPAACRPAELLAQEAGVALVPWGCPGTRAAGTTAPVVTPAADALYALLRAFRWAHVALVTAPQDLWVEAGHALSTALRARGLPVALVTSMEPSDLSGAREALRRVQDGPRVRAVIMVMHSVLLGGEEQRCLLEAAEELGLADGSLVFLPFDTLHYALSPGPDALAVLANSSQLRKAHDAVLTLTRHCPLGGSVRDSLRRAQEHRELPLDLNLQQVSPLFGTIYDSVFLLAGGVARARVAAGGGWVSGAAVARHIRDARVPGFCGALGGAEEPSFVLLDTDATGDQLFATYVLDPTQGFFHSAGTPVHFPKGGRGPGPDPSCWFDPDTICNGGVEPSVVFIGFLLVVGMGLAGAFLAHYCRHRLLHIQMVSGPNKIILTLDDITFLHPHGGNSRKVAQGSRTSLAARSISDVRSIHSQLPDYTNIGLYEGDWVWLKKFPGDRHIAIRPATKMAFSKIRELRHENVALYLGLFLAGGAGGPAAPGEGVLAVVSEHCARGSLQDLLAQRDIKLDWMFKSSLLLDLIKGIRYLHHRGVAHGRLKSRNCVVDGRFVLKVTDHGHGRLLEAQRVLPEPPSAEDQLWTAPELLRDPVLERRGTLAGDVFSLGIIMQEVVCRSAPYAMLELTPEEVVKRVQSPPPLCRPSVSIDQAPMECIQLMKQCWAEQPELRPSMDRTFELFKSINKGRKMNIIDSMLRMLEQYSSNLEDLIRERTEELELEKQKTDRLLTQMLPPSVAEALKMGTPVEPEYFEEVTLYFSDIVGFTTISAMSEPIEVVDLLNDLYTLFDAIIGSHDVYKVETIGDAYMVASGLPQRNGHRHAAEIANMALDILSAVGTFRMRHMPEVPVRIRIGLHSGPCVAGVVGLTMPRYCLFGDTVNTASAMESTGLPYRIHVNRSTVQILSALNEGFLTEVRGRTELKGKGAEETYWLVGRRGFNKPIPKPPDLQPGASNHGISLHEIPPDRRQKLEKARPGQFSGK

For GCAP-2 (from UniProt P51177), the Kd in test [1] came to 244 µM.

Turning to “ROS-GC1 peptide 1 (aa 965-981), postulated GCAP-2 binding motif”, in test [2], the KD1 (first binding event) came out at 4.2 µM and the KD2 (second binding event) turned out to be 244 µM. Further, the Kd in test [3] was found to be 1.12 µM.

Regarding “ROS-GC1 peptide 2 (aa 942-981), N-terminal extension of peptide 1 with a part of the catalytic domain”, in test [2], the KD1 (first binding event; set by extrapolation) is 1 µM. In addition, the Kd in test [3] turned out to be 3 µM.

With YRIHVNRSTVQILSALN [Peptide 1], the Kd worked out at 2.36 µM on GCAP-2 [4] and 4.2 µM at GCAP-2 [5].

The record behind these values is paper PMC6156451 (Frontiers in Molecular Neuroscience, 2018).
